Stoichiometry N data for one substance are collected here from publication PMC12130304.

This test deals with C-terminal, Twin-Strep-HA-tagged AVRA13-1 (Blumeria hordei). Nature of the test: SEC + other: negative-stain TEM.

A word on the stoichiometry N: it is the number of molecules, sites or subunits per partner or assembly. As for “N-terminal, GST-tagged MLA13^K98E/K100E (receptor)”, the stoichiometry N stood at 1.
